The values below come from publication PMC11838012, “TRAM-LAG1-CLN8 family proteins are acyltransferases regulating phospholipid composition” (Science Advances, 2025).

What all share (assay): LC-MS/MS initial-rate acyltransferase assay
For one series, the target named is T1, TLCD1 (Homo sapiens, UniProt Q96CP7).
T1 construct: full length, C-terminal FLAG and Strep tags kept; expressed in Flp-In T-REx 293 cells; purified in LMNG; monomer in micelles
T1 sequence (Q96CP7 36-247): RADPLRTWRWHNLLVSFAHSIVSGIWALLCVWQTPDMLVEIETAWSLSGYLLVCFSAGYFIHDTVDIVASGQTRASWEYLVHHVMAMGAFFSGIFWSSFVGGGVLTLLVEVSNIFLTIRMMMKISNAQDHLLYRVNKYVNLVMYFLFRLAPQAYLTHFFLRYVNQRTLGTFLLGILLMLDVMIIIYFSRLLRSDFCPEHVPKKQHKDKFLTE
The class given is biochemical. The settings on record: 100 uM oleoyl-CoA; pH 7.4, 30 C, 0.05% LMNG; shares the LPE site.

Substrate in series [1]: CCCCCCCC/C=C\CCCCCCCC(=O)OC[C@@H](O)COP(=O)(O)OCCN
The class given is biochemical, Caenorhabditis elegans. To be noted: 100 uM myristoyl-CoA, pH 7.4, 30 C, 0.05% LMNG.

Substrate in series [2]: CCCCCCCC/C=C\CCCCCCCC(=O)OC[C@@H](O)COP(=O)(O)OCCN
The class given is biochemical, Saccharomyces cerevisiae. To be noted: 100 uM palmitoleoyl-CoA, pH 7.4, 30 C, 0.05% LMNG.

Substrate in series [3]: CCCCCCCC/C=C\CCCCCCCC(=O)OC[C@@H](O)COP(=O)(O)OCCN
The class given is biochemical, Homo sapiens. The settings on record: 100 uM oleoyl-CoA, pH 7.4, 30 C, 0.05% LMNG.

`Cc1ncc(C[n+]2csc(CCO)c2C)c(N)n1` [thiamine]: the “LC-MS/MS initial-rate acyltransferase assay” value on TLCD1 is given as “a linear increase in the initial reaction rate (Vo) even at millimolar thiamine levels”.

B1: FLD-1 (Caenorhabditis elegans) (protein)
chain: MRQLAELLTDLLGPVPTMFLWVIVSFAFFRALQFIVRWYLFGKWTWPNFNFFDIRNRIRRRRRGGQEAENTENPPENEAEAGEQVEQEPEPDSRDLSAIPPNKKWRISNECVSLFHSVISGLWAAYALLYYKQLVQDLVNYRCDVAINLVLMSAGYLFHDLVDLLVNEQSARIIELLFHHVVVLSAFAVTMFFNRFLGVVVFGLLMELNSIFLHSRSLLNLYGVDKKSPSFRIIALLNMVTLFAFRLCVSAYLVYFVVVSIPDLEWYVSIINGLVIASLASTNTVLTYRLLAADGLLGSRRTRRTPAATAETQVGDVESGPLRTQVEDEDHHTIGVQTIHGTTEDATQTV
notes: codon-optimised, C-terminal His tag cut off by Factor Xa; expressed in S. cerevisiae BJ2168; purified in LMNG
What is called Km is the concentration of substrate that gives half-maximal velocity. As usually defined, the kcat is the maximal rate divided by the concentration of active sites. On to B1, for which, in series [1], the Km worked out at 10.1 µM and the kcat turned out to be 0.608 s⁻¹.

B2: YPR114w (Saccharomyces cerevisiae S288C) (protein)
chain: MDVLLSLPQPELFKTTVIPFLANRNIIKSEAILSNLHSIFYVAIFYHIWFLFGKWILFPHLVKWKLDYDQKHNVKKDEKTTSERQAQHYKKKYTSLINQSSVHLISLLQSIVVLYYSLKFLLDPKASAEPYQTSHSRVFTENRDTQVICIFAIGYFVWDIYISTMYSTFPFVVHGIISTVVFCIGLKPYIQYYAPVFLMFELSNPSLNFRWFGIKFLPQKSKFCSLLLLLNNLTLMVVFFAARIAWGWFQIGKLCYDFYQVRNEPGFLVFDTIVILAGNFVLDILNVIWFSTMVSVAAKVLKKGESVDKVTKNEQ
notes: full length, C-terminal His tag cut off by Factor Xa; expressed in S. cerevisiae BJ2168; purified in LMNG
Take B2: in series [2], the Km is 16.7 µM and the kcat is 2.225 s⁻¹.

B3: TLCD1 (Homo sapiens) (protein)
chain: T1 sequence (Q96CP7 36-247)
notes: full length, C-terminal FLAG and Strep tags kept; expressed in Flp-In T-REx 293 cells; purified in LMNG; monomer in micelles
B3: in series [3], the Km was found to be 67.5 µM and the kcat stood at 0.348 s⁻¹.
